Here are results for eight molecules from patent US20250340623A1 (AC IMMUNE, published 2025).

Assay [1] addresses T1, alpha-synuclein seeds (UniProt P37840 1-140). The assay is described as follows: cell-based or functional assay.
A further assay concerns the target T2, 64-78aa.
T2 construct: also called alpha-synuclein peptide 64-78
T2 peptide: {Biotin-Ahx}-TNVGGAVVTGVTAVA
The assay is described as follows: indirect ELISA on biotinylated 15-mer peptide. The protocol: (§1) Serum-free supernatants were harvested from stable hybridomas. The supernatants containing antibodies of interest were then screened by an indirect ELISA assay to determine epitopes. Epitopes were first determined using a library of 15-mer peptides covering the entire sequence of human alpha-synuclein protein, spanning amino acids (aa) 1-140 with 9aa offset and […] overlap. […] Briefly, streptavidin-coated ELISA plates were blocked overnight at 4° C. […] Plates were washed with PBS/0.05% Tween®20 and then incubated with the hybridoma supernatants at 1/100 dilution for 1 hour at 25° C.

Another assay concerns the target T3, 82-96aa.
T3 construct: also called alpha-synuclein peptide 82-96
T3 peptide: {Biotin-Ahx}-VEGAGSIAAATGFVK
The assay is described as follows: indirect ELISA on biotinylated 15-mer peptide. The method, then: as §1

In the next assay the target is T4, 118-132aa.
T4 peptide: {Biotin-Ahx}-VDPDNEAYEMPSEEG
The assay is described as follows: indirect ELISA on biotinylated 15-mer peptide. The method, then: as §1

The next assay deals with T5, 46-60aa.
T5 construct: also called alpha-synuclein peptide 46-60
T5 peptide: {Biotin-Ahx}-EGVVHGVATVAEKTK
Nature of the assay: indirect ELISA on biotinylated 15-mer peptide. The protocol: as §1

The target in the next assay is T6, 127-140aa.
T6 peptide: {Biotin-Ahx}-MPSEEGYQDYEPEA
The assay is described as follows: indirect ELISA on biotinylated 15-mer peptide, supernatant 1/100. The method, then: as §1

The next assay has as its target T7, 91-105aa.
T7 peptide: {Biotin-Ahx}-ATGFVKKDQLGKNEE
Nature of the assay: indirect ELISA on biotinylated 15-mer peptide. The method, then:
as §1

In a further assay the target is T8, 1-14aa.
T8 construct: also called alpha-synuclein peptide 1-14
T8 peptide: MDVFMKGLSKAKEG-biotin
The assay is described as follows: indirect ELISA on biotinylated 15-mer peptide. The protocol:
as §1

Another assay deals with T9, 1-15aa.
T9 construct: also called alpha-synuclein peptide 1-15
T9 peptide: {Biotin-Ahx}-MDVFMKGLSKAKEGV
Nature of the assay: indirect ELISA on biotinylated 15-mer peptide. The protocol: as §1

The target of another assay is T10, 10-24aa.
T10 construct: also called alpha-synuclein peptide 10-24
T10 peptide: {Biotin-Ahx}-KAKEGVVAAAEKTKQ
Nature of the assay: indirect ELISA on biotinylated 15-mer peptide. The method, then:
as §1

For assay [2], the target named is T1, alpha-synuclein seeds. The assay is described as follows: cell-based or functional assay. The source holds these as a separate data set.

Where no end group is shown, it is not given here. The star is where a group is joined. Biotin = O=C1N[C@H]2[C@H](CS[C@H]2CCCCC(=O)*)N1; Ahx = NCCCCCC(=O)O

B1: ACI-7067-1113D10-Ab1 (antibody, V domains shown)
VH: EVQLVESGGGLVQPKGSLKLSCAASGFTFNTYALHWVRQAPGKGLEWVARIRSKSSNYATYYADSVKDRFTISRDDSQSMLYLQMNNLKTEDTGMYYCVRGGVSPFDYWGQGTTLTVSS
VL: QIVLTQSPAIMSASPGEKVTMTCSASSSVSYMHWYQQKSGTSPKRWIYDTSKLASGVPARFSGSGSGTSYSLTISSMEAEDSATYYCQQWSNNPPTFGGGTKLEIK
notes: mouse hybridoma mAb; VH/VL only; also called 1113D10E3D5
In the case of B1, the “aggregation half-time (τ1/2) of seeded alpha-synuclein aggregation, ThT; no antibody 26.9 hours” value with alpha-synuclein seeds [1] amounted to 30.1 h. Further, the binding result is given as “no binding (tested: supernatant 1/100)” with 64-78aa; “no binding (tested: supernatant 1/100)” in the assay with 82-96aa; “no binding (tested: supernatant 1/100)” in the assay with 118-132aa; “no binding (tested: supernatant 1/100)” in the assay with 46-60aa; “binds” with 127-140aa.

B2: ACI-7079-2605B3-Ab2 (antibody, V domains shown)
VH: EVQLVESGGGLVQPKGSLKLSCAASGFIFKTYAMHWVRQAPGKGLEWVARIRSKGGNYATYFADSVKDRFTISRDDSQNMLYLQVNNLKIEDTAMYFCVRGGNYSWFAYWGQGTLVTVSA
VL: QIVLTQSPAIMSASPGEKVTMTCSASSSVTYMHWYQQKSGTSPKRWIYDTSQLASGVPARFSGSGSGTSHSLTISSMETEDAATYYCQQWTRNPPTFGGGTKLAIK
notes: mouse hybridoma mAb; VH/VL only; also called 2605B3D1
As to B2, the binding result in the assay with 82-96aa, in the assay with 91-105aa, with 118-132aa, in the assay with 1-14aa, with 1-15aa and in the assay with 10-24aa was “no binding (tested: supernatant 1/100)” in each case. Moreover, the binding result is “no binding (tested: supernatant 1/100)” in the assay with 46-60aa and “binds” in the assay with 127-140aa.

B3: ACI-4301D5_3108C10 (bispecific antibody, V domains shown)
VH 1: QVQLQQSGPELVRPGASVKISCKASGYRFTSYYIHWVKQRPGQGLEWIGWIYPGSDNTKHNDKFKGKATLTADTSSSTAYMQLSSLTSEDSAVYFCARDYDVGFGYWGQGTLVTVSS
VL 1: not shown
VH 2: ELQLVESGGGLVRPGGSLKLSCATSGFTFRNYAMSWVRQTPAKRLEWVATISDGGTYTFYSDNVKGRFTISRDNVKNTLYLQMSHLKSEDTAMYYCSRAGSGHWGQGTTLTVSS
VL 2: not shown
B3: in the assay with alpha-synuclein seeds [2], the “IC50, percentage of de novo alpha-synuclein aggregates formed in cells after immunodepletion of seeds” value (from here on “IC50, percentage”) was 21.6 nM.

B4: ACI-1108B11_27D8 (bispecific antibody, V domains shown)
VH 1: EVQLVESGGGLVQPKGSLKLSCAASGFTFNTYAMHWVRQAPGKGLEWVARIRSKGSNYATNYADSVKDRFTISRDDSQSMLYLQMNNLKTEDTAMYYCVRGHGSSYFSYWGQGTLVTVSA
VL 1: QIVLTQSPAIMSASPGERITMTCSANSSVTYMHWYQQKSGTSPKRWIYDTSNLASGVPARFSGSGSGTSYSLTISSMEAEDAATYYCQQWKSHPPTFGAGTKLELK
VH 2: EVQLVESGGGLVQPKGSLKLSCAASGFTFNTYAMNWVRQAPGKGLEWVARIRSKSNNFATYYADSVKDRFTISRDESESMLYLQMNNLKAEDTAMYYCVRSFDYWGQGTTLTVSS
VL 2: DIKMTQSPSSMYASLGERVTITCKASQDINSYLSWFQQKPGKSPKTLIYRAKRLVDGVPSRFSGSGSGQDYSLTISSLEYEDMGIYYCLQYDEFPFTFGSGTKLEIK
For B4, in the assay with alpha-synuclein seeds [2], the “IC50, percentage” value is 8.6 nM.

B5: ACI-7067-1106A8-Ab2 (antibody, V domains shown)
VH: EVQLVESGGGLVQPKGSLKLSCAASGFTFNTYAMHWVRQAPGKGLEWVARIRSKGSNYATNYADSVKDRFTISRDDSQSMLYLQMNNLKTEDTAMYYCVRGHGSSYFSYWGQGTLVTVSA
VL: QIVLTQSPAIMSASPGEKVTMTCSASSSVSYMHWYQQKSGTSPKRWIYDTSNLASGVPARFSGSGSGTSYSLTISSMEAEDAATYYCQQWNSHPPTFGAGTKLELK
notes: mouse hybridoma mAb; VH/VL only; also called 1106A8H3
B5: the binding result in the assay with 64-78aa is reported as “no binding (tested: supernatant 1/100)”; in the assay with 82-96aa, “no binding (tested: supernatant 1/100)”; in the assay with 118-132aa it was “no binding (tested: supernatant 1/100)”; in the assay with 46-60aa, “no binding (tested: supernatant 1/100)”; with 127-140aa it was “binds”.

B6: ACI-7079-2603F3-Ab1 (antibody, V domains shown)
VH: EVQLVESGGGLVQPKGSLKLSCAASGFTFNTYAMHWVRQAPGKGLEWVARIRSKGSNYATYYADSVKDRFTISRDDSQSMLYLQMNNLKTEDTAMYYCVRGGGDSWFAYWGQGTLVTVSA
VL: QIVLTQSPAIMSASPGERVTMTCTASSSVSYMHWYQQKSGTSPKRWIYDTSKLASGVPARFSGSGSGASYTLTISSMEAEDAATYYCQQWNSNPPTFGGGTQLAIK
notes: mouse hybridoma mAb; VH/VL only; also called 2603F3H3
With B6, the binding result in the assay with 82-96aa, in the assay with 91-105aa, with 118-132aa, in the assay with 1-14aa, with 1-15aa and with 10-24aa was “no binding (tested: supernatant 1/100)” throughout. Besides, the binding result is on record as “no binding (tested: supernatant 1/100)” with 46-60aa and “binds” in the assay with 127-140aa.

B7: ACI-7067-1108B11-Ab2 (antibody, V domains shown)
VH: EVQLVESGGGLVQPKGSLKLSCAASGFTFNTYAMHWVRQAPGKGLEWVARIRSKGSNYATNYADSVKDRFTISRDDSQSMLYLQMNNLKTEDTAMYYCVRGHGSSYFSYWGQGTLVTVSA
VL: QIVLTQSPAIMSASPGERITMTCSANSSVTYMHWYQQKSGTSPKRWIYDTSNLASGVPARFSGSGSGTSYSLTISSMEAEDAATYYCQQWKSHPPTFGAGTKLELK
notes: mouse hybridoma mAb; VH/VL only; also called 1108B11D3
On to B7, for which the “aggregation half-time (τ1/2) of seeded alpha-synuclein aggregation, ThT; no antibody 26.9 hours” value with alpha-synuclein seeds [1] came to 33.3 h. Besides, the binding result is given as “no binding (tested: supernatant 1/100)” with 64-78aa; “no binding (tested: supernatant 1/100)” with 82-96aa; “no binding (tested: supernatant 1/100)” with 118-132aa; “no binding (tested: supernatant 1/100)” with 46-60aa; “binds” with 127-140aa.

B8: ACI-3112H1_1101C8 (bispecific antibody, V domains shown)
VH 1: EVQLQQSGPELVKPGASVKISCKASGYTFSDYFMNWVKQSHGKSLEWIGDINPNNGGSSYIQKFKGKATLTVDKSSTTAYMELRSLTSEDSAVYYCARGSNYAMDSWGQGTSVTVSS
VL 1: DIVMSQSPSSLAVSAGEKVTMSCKSSQSLLNSRTRKNYLAWYQQKPGQSPKLLIYWASTRESGVPDRFTGSGSGTDFTLTISSVQAEDLAVYYCKQSYDLWTFGGGTKLEIK
VH 2: EVQLVESGGGLVQPKGSLKLSCAASGFSFNIYAMNWVRQAPGKGLEWVARIRSKSNNYATYYADSVKDRFTISRADSESMLYLQMNNLKTEDTAMYYCVRVGLRFYAMDYWGQGTSVTVSS
VL 2: DVLMTQTPLSLPVSLGDQASISCRSSQSIVHSNGNTYLEWYLQKPGQSPKLLIYKVSNRFSGVPDRFSGSGSGTDFTLKISRVEAEDLGVYYCFQGSQGPLTFGAGTKLELK
For B8, the “IC50, percentage” value with alpha-synuclein seeds [2] was 18 nM.
